B1: TRAF1 DN (184-417aa) (protein, UniProt Q13077 184-416, looked up, not shown: small tags and cut ends; large carriers)
chain: EKLLAELEGKLRVFENIVAVLNKEVEASHLALATSIHQSQLDRERILSLEQRVVELQQTLAQKDQALGKLEQSLRLMEEASFDGTFLWKITNVTRRCHESACGRTVSLFSPAFYTAKYGYKLCLRLYLNGDGTGKRTHLSLFIVIMRGEYDALLPWPFRNKVTFMLLDQNNREHAIDAFRPDLSSASFQRPQSETNVASGCPLFFPLSKLQSPKHAYVKDDTMFLKCIVETST
B2: TRAF3 DN (382-568aa) (protein, UniProt Q13114 382-568, looked up, not shown: small tags and cut ends; large carriers)
chain: ESQLSRHDQMLSVHDIRLADMDLRFQVLETASYNGVLIWKIRDYKRRKQEAVMGKTLSLYSQPFYTGYFGYKMCARVYLNGDGMGKGTHLSLFFVIMRGEYDALLPWPFKQKVTLMLMDQGSSRRHLGDAFKPDPNSSSFKKPTGEMNIASGCPVFVAQTVLENGTYIKDDTIFIKVIVDTSDLPDP
B3: TRAF2 DN (87-501aa) (protein, UniProt Q12933 87-501, looked up, not shown: small tags and cut ends; large carriers)
chain: SSSAFPDNAARREVESLPAVCPSDGCTWKGTLKEYESCHEGRCPLMLTECPACKGLVRLGEKERHLEHECPERSLSCRHCRAPCCGADVKAHHEVCPKFPLTCDGCGKKKIPREKFQDHVKTCGKCRVPCRFHAIGCLETVEGEKQQEHEVQWLREHLAMLLSSVLEAKPLLGDQSHAGSELLQRCESLEKKTATFENIVCVLNREVERVAMTAEACSRQHRLDQDKIEALSSKVQQLERSIGLKDLAMADLEQKVLEMEASTYDGVFIWKISDFARKRQEAVAGRIPAIFSPAFYTSRYGYKMCLRIYLNGDGTGRGTHLSLFFVVMKGPNDALLRWPFNQKVTLMLLDQNNREHVIDAFRPDVTSSSFQRPVNDMNIASGCPLFCPVSKMEAKNSYVRDDAIFIKAIVDLTGL

Target: m19-humBBz CAR (mouse; human) (UniProt P01731)
Assay: cell-based or functional assay

Binder	NF-κB signaling in NF-κB/293/GFP-Luc reporter cells, GFP % [%]	NF-κB signaling in NF-κB/293/GFP-Luc reporter cells, GFP MFI [MFI]	NF-κB signaling in NF-κB/293/GFP-Luc reporter cells, GFP+% [%]
B1	13.4	1690	
B2	30.8	6060	
B3		14300	63.5

Reference: patent publication US20230265184A1
